We go through 18 molecules from patent US8673848 (Novartis, dated 2014).

This test addresses T1, human APJ receptor (hAPJ) (human, UniProt P35414 1-380).
T1 sequence (looked up): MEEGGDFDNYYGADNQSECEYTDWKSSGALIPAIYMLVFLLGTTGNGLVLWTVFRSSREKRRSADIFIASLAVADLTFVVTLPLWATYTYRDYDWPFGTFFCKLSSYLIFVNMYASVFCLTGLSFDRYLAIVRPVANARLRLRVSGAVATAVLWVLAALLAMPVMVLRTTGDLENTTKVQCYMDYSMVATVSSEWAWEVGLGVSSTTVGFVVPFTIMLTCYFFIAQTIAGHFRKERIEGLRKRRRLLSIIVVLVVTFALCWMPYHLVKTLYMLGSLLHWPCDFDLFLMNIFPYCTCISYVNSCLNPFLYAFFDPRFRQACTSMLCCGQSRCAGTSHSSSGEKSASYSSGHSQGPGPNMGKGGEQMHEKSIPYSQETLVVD
The test is described as follows: cell-based or functional assay.

Bridges are numbered along the chain shown (N, C = ends). [ ]: non-standard residue; d: D form. The star is where a group is joined. 3Pal = N[C@@H](Cc1cccnc1)C(=O)O; Myristoyl = CCCCCCCCCCCCCC(=O)*; pGlu = O=C1CC[C@@H](C(=O)O)N1; d(hCys) = N[C@H](CCS)C(=O)O; hCys = N[C@@H](CCS)C(=O)O; Nle = CCCC[C@H](N)C(=O)O; AEEA = NCCOCCOCC(=O)O

B1: Example 45: pE-R-P-R-L-C-H-K-R-P-Nle-C-F-OH (peptide)
peptide: [pGlu]RPRLCHKRP[Nle]CF-OH
modifications: disulfide 6-12
SMILES: CCCC[C@@H]1NC(=O)[C@@H]2CCCN2C(=O)[C@H](CCCNC(=N)N)NC(=O)[C@H](CCCCN)NC(=O)[C@H](Cc2c[nH]cn2)NC(=O)[C@@H](NC(=O)[C@H](CC(C)C)NC(=O)[C@H](CCCNC(=N)N)NC(=O)[C@@H]2CCCN2C(=O)[C@H](CCCNC(=N)N)NC(=O)[C@@H]2CCC(=O)N2)CSSC[C@@H](C(=O)N[C@@H](Cc2ccccc2)C(=O)O)NC1=O
In the case of B1, the “hAPJ Ca2+ Flux EC50” value was found to be 6.55 nM.

B2: Example 53: pE-R-P-R-L-c-H-K-G-P-Nle-C-F-OH (peptide)
peptide: [pGlu]RPRL[dC]HKGP[Nle]CF-OH
modifications: disulfide 6-12
SMILES: CCCC[C@@H]1NC(=O)[C@@H]2CCCN2C(=O)CNC(=O)[C@H](CCCCN)NC(=O)[C@H](Cc2c[nH]cn2)NC(=O)[C@H](NC(=O)[C@H](CC(C)C)NC(=O)[C@H](CCCNC(=N)N)NC(=O)[C@@H]2CCCN2C(=O)[C@H](CCCNC(=N)N)NC(=O)[C@@H]2CCC(=O)N2)CSSC[C@@H](C(=O)N[C@@H](Cc2ccccc2)C(=O)O)NC1=O
With B2, the “hAPJ Ca2+ Flux EC50” value amounted to 1.07 nM.

B3: Example 48: pE-R-P-R-L-C-H-K-G-P-Nle-C-H-OH (peptide)
peptide: [pGlu]RPRLCHKGP[Nle]CH-OH
modifications: disulfide 6-12
SMILES: CCCC[C@@H]1NC(=O)[C@@H]2CCCN2C(=O)CNC(=O)[C@H](CCCCN)NC(=O)[C@H](Cc2c[nH]cn2)NC(=O)[C@@H](NC(=O)[C@H](CC(C)C)NC(=O)[C@H](CCCNC(=N)N)NC(=O)[C@@H]2CCCN2C(=O)[C@H](CCCNC(=N)N)NC(=O)[C@@H]2CCC(=O)N2)CSSC[C@@H](C(=O)N[C@@H](Cc2c[nH]cn2)C(=O)O)NC1=O
For B3, the “hAPJ Ca2+ Flux EC50” value worked out at 4.1 nM.

B4: Example 50: pE-R-P-R-L-C-H-K-G-P-Nle-C-OH (peptide)
peptide: [pGlu]RPRLCHKGP[Nle]C-OH
modifications: disulfide 6-12
SMILES: CCCC[C@@H]1NC(=O)[C@@H]2CCCN2C(=O)CNC(=O)[C@H](CCCCN)NC(=O)[C@H](Cc2c[nH]cn2)NC(=O)[C@@H](NC(=O)[C@H](CC(C)C)NC(=O)[C@H](CCCNC(=N)N)NC(=O)[C@@H]2CCCN2C(=O)[C@H](CCCNC(=N)N)NC(=O)[C@@H]2CCC(=O)N2)CSSC[C@@H](C(=O)O)NC1=O
With B4, the “hAPJ Ca2+ Flux EC50” value amounted to 1.92 nM.

B5: Example 58: Myristoyl-O2Oc-O2Oc-Q-R-P-R-L-C-H-K-G-P-Nle-C-f-OH (peptide)
peptide: Myristoyl-[AEEA][AEEA]QRPRLCHKGP[Nle]C[dF]-OH
modifications: disulfide 8-14
SMILES: CCCCCCCCCCCCCC(=O)NCCOCCOCC(=O)NCCOCCOCC(=O)N[C@@H](CCC(N)=O)C(=O)N[C@@H](CCCNC(=N)N)C(=O)N1CCC[C@H]1C(=O)N[C@@H](CCCNC(=N)N)C(=O)N[C@@H](CC(C)C)C(=O)N[C@H]1CSSC[C@@H](C(=O)N[C@H](Cc2ccccc2)C(=O)O)NC(=O)[C@H](CCCC)NC(=O)[C@@H]2CCCN2C(=O)CNC(=O)[C@H](CCCCN)NC(=O)[C@H](Cc2c[nH]cn2)NC1=O
Turning to B5, the “hAPJ Ca2+ Flux EC50” value stood at 13.1 nM.

B6: Example 51: pE-R-P-R-L-C-H-K-G-P-Nle-hC-F-OH (peptide)
peptide: [pGlu]RPRLCHKGP[Nle][hCys]F-OH
modifications: disulfide 6-12
SMILES: CCCC[C@@H]1NC(=O)[C@@H]2CCCN2C(=O)CNC(=O)[C@H](CCCCN)NC(=O)[C@H](Cc2c[nH]cn2)NC(=O)[C@@H](NC(=O)[C@H](CC(C)C)NC(=O)[C@H](CCCNC(=N)N)NC(=O)[C@@H]2CCCN2C(=O)[C@H](CCCNC(=N)N)NC(=O)[C@@H]2CCC(=O)N2)CSSCC[C@@H](C(=O)N[C@@H](Cc2ccccc2)C(=O)O)NC1=O
On to B6, for which the “hAPJ Ca2+ Flux EC50” value turned out to be 1.09 nM.

B7: Example 44: pE-R-P-R-L-C-H-K-L-P-Nle-C-F-OH (peptide)
peptide: [pGlu]RPRLCHKLP[Nle]CF-OH
modifications: disulfide 6-12
SMILES: CCCC[C@@H]1NC(=O)[C@@H]2CCCN2C(=O)[C@H](CC(C)C)NC(=O)[C@H](CCCCN)NC(=O)[C@H](Cc2c[nH]cn2)NC(=O)[C@@H](NC(=O)[C@H](CC(C)C)NC(=O)[C@H](CCCNC(=N)N)NC(=O)[C@@H]2CCCN2C(=O)[C@H](CCCNC(=N)N)NC(=O)[C@@H]2CCC(=O)N2)CSSC[C@@H](C(=O)N[C@@H](Cc2ccccc2)C(=O)O)NC1=O
As for B7, the “hAPJ Ca2+ Flux EC50” value worked out at 5.94 nM. The figure for [pGlu]RPRLKFKGP[Nle]F (lactam 6-C) [Example 5: pE-R-P-R-L-K-F-K-G-P-Nle-F] is 21.2 nM.

B8: Example 42: pE-R-P-R-D-C-H-K-G-P-Nle-C-F-OH (peptide)
peptide: [pGlu]RPRDCHKGP[Nle]CF-OH
modifications: disulfide 6-12
SMILES: CCCC[C@@H]1NC(=O)[C@@H]2CCCN2C(=O)CNC(=O)[C@H](CCCCN)NC(=O)[C@H](Cc2c[nH]cn2)NC(=O)[C@@H](NC(=O)[C@H](CC(=O)O)NC(=O)[C@H](CCCNC(=N)N)NC(=O)[C@@H]2CCCN2C(=O)[C@H](CCCNC(=N)N)NC(=O)[C@@H]2CCC(=O)N2)CSSC[C@@H](C(=O)N[C@@H](Cc2ccccc2)C(=O)O)NC1=O
In the case of B8, the “hAPJ Ca2+ Flux EC50” value was 92.8 nM. Next, [pGlu]RPRLCHKG[Pipecolic acid][Nle]CF-OH (disulfide 6-12) [Example 46: pE-R-P-R-L-C-H-K-G-(Pipecolic acid)-Nle-C-F-OH]: 3.87 nM.

B9: Example 49: pE-R-P-R-L-C-H-K-G-P-Nle-C-E-OH (peptide)
peptide: [pGlu]RPRLCHKGP[Nle]CE-OH
modifications: disulfide 6-12
SMILES: CCCC[C@@H]1NC(=O)[C@@H]2CCCN2C(=O)CNC(=O)[C@H](CCCCN)NC(=O)[C@H](Cc2c[nH]cn2)NC(=O)[C@@H](NC(=O)[C@H](CC(C)C)NC(=O)[C@H](CCCNC(=N)N)NC(=O)[C@@H]2CCCN2C(=O)[C@H](CCCNC(=N)N)NC(=O)[C@@H]2CCC(=O)N2)CSSC[C@@H](C(=O)N[C@@H](CCC(=O)O)C(=O)O)NC1=O
As for B9, the “hAPJ Ca2+ Flux EC50” value worked out at 34.2 nM.

B10: Example 56: pE-R-P-R-L-C-H-K-G-P-Nle-c-F-OH (peptide)
peptide: [pGlu]RPRLCHKGP[Nle][dC]F-OH
modifications: disulfide 6-12
SMILES: CCCC[C@@H]1NC(=O)[C@@H]2CCCN2C(=O)CNC(=O)[C@H](CCCCN)NC(=O)[C@H](Cc2c[nH]cn2)NC(=O)[C@@H](NC(=O)[C@H](CC(C)C)NC(=O)[C@H](CCCNC(=N)N)NC(=O)[C@@H]2CCCN2C(=O)[C@H](CCCNC(=N)N)NC(=O)[C@@H]2CCC(=O)N2)CSSC[C@H](C(=O)N[C@@H](Cc2ccccc2)C(=O)O)NC1=O
As to B10, the “hAPJ Ca2+ Flux EC50” value amounted to 1.12 nM.

B11: Example 54: pE-R-P-R-L-C-H-K-G-P-Nle-(D-hC)-F-OH (peptide)
peptide: [pGlu]RPRLCHKGP[Nle][d(hCys)]F-OH
modifications: disulfide 6-12
SMILES: CCCC[C@@H]1NC(=O)[C@@H]2CCCN2C(=O)CNC(=O)[C@H](CCCCN)NC(=O)[C@H](Cc2c[nH]cn2)NC(=O)[C@@H](NC(=O)[C@H](CC(C)C)NC(=O)[C@H](CCCNC(=N)N)NC(=O)[C@@H]2CCCN2C(=O)[C@H](CCCNC(=N)N)NC(=O)[C@@H]2CCC(=O)N2)CSSCC[C@H](C(=O)N[C@@H](Cc2ccccc2)C(=O)O)NC1=O
B11: the “hAPJ Ca2+ Flux EC50” value was 6.7 nM.

B12: Example 52: pE-R-P-R-L-hC-H-K-G-P-Nle-hC-F-OH (peptide)
peptide: [pGlu]RPRL[hCys]HKGP[Nle][hCys]F-OH
modifications: disulfide 6-12
SMILES: CCCC[C@@H]1NC(=O)[C@@H]2CCCN2C(=O)CNC(=O)[C@H](CCCCN)NC(=O)[C@H](Cc2c[nH]cn2)NC(=O)[C@@H](NC(=O)[C@H](CC(C)C)NC(=O)[C@H](CCCNC(=N)N)NC(=O)[C@@H]2CCCN2C(=O)[C@H](CCCNC(=N)N)NC(=O)[C@@H]2CCC(=O)N2)CCSSCC[C@@H](C(=O)N[C@@H](Cc2ccccc2)C(=O)O)NC1=O
On to B12, for which the “hAPJ Ca2+ Flux EC50” value came out at 53.9 nM.

B13: Example 55: pE-R-P-R-L-(D-hC)-H-K-G-P-Nle-(D-hC)-F-OH (peptide)
peptide: [pGlu]RPRL[d(hCys)]HKGP[Nle][d(hCys)]F-OH
modifications: disulfide 6-12
SMILES: CCCC[C@@H]1NC(=O)[C@@H]2CCCN2C(=O)CNC(=O)[C@H](CCCCN)NC(=O)[C@H](Cc2c[nH]cn2)NC(=O)[C@H](NC(=O)[C@H](CC(C)C)NC(=O)[C@H](CCCNC(=N)N)NC(=O)[C@@H]2CCCN2C(=O)[C@H](CCCNC(=N)N)NC(=O)[C@@H]2CCC(=O)N2)CCSSCC[C@H](C(=O)N[C@@H](Cc2ccccc2)C(=O)O)NC1=O
For the molecule B13, the “hAPJ Ca2+ Flux EC50” value was 8.16 nM.

B14: Example 57: pE-R-P-R-L-c-H-K-G-P-Nle-c-F-OH (peptide)
peptide: [pGlu]RPRL[dC]HKGP[Nle][dC]F-OH
modifications: disulfide 6-12
SMILES: CCCC[C@@H]1NC(=O)[C@@H]2CCCN2C(=O)CNC(=O)[C@H](CCCCN)NC(=O)[C@H](Cc2c[nH]cn2)NC(=O)[C@H](NC(=O)[C@H](CC(C)C)NC(=O)[C@H](CCCNC(=N)N)NC(=O)[C@@H]2CCCN2C(=O)[C@H](CCCNC(=N)N)NC(=O)[C@@H]2CCC(=O)N2)CSSC[C@H](C(=O)N[C@@H](Cc2ccccc2)C(=O)O)NC1=O
Consider B14, for which the “hAPJ Ca2+ Flux EC50” value was 2.01 nM.

B15: Example 47: pE-R-P-R-L-C-H-K-G-P-(3-PyA)-C-F-OH (peptide)
peptide: [pGlu]RPRLCHKGP[3Pal]CF-OH
modifications: disulfide 6-12
SMILES: CC(C)C[C@H](NC(=O)[C@H](CCCNC(=N)N)NC(=O)[C@@H]1CCCN1C(=O)[C@H](CCCNC(=N)N)NC(=O)[C@@H]1CCC(=O)N1)C(=O)N[C@H]1CSSC[C@@H](C(=O)N[C@@H](Cc2ccccc2)C(=O)O)NC(=O)[C@H](Cc2cccnc2)NC(=O)[C@@H]2CCCN2C(=O)CNC(=O)[C@H](CCCCN)NC(=O)[C@H](Cc2c[nH]cn2)NC1=O
Turning to B15, the “hAPJ Ca2+ Flux EC50” value was found to be 2.41 nM.

B16: Example 43: pE-R-P-R-L-C-E-K-G-P-Nle-C-F-OH (peptide)
peptide: [pGlu]RPRLCEKGP[Nle]CF-OH
modifications: disulfide 6-12
SMILES: CCCC[C@@H]1NC(=O)[C@@H]2CCCN2C(=O)CNC(=O)[C@H](CCCCN)NC(=O)[C@H](CCC(=O)O)NC(=O)[C@@H](NC(=O)[C@H](CC(C)C)NC(=O)[C@H](CCCNC(=N)N)NC(=O)[C@@H]2CCCN2C(=O)[C@H](CCCNC(=N)N)NC(=O)[C@@H]2CCC(=O)N2)CSSC[C@@H](C(=O)N[C@@H](Cc2ccccc2)C(=O)O)NC1=O
On to B16, for which the “hAPJ Ca2+ Flux EC50” value was determined as 4.14 nM.
